Our source for the Kd values is article PMC2121072.

This test concerns the target full-length GST-hDlg fusion protein (human) (UniProt Q12959). Briefly: pull-down.

For orientation: pKd means the Kd on a negative log10 scale, so that one unit is a factor of ten. A low value points to a high Kd.

pKd: −log10 of the molar value.

Sequence of full-length GST-hDlg fusion protein (human) (Q12959 whole entry, the tested form may be a part): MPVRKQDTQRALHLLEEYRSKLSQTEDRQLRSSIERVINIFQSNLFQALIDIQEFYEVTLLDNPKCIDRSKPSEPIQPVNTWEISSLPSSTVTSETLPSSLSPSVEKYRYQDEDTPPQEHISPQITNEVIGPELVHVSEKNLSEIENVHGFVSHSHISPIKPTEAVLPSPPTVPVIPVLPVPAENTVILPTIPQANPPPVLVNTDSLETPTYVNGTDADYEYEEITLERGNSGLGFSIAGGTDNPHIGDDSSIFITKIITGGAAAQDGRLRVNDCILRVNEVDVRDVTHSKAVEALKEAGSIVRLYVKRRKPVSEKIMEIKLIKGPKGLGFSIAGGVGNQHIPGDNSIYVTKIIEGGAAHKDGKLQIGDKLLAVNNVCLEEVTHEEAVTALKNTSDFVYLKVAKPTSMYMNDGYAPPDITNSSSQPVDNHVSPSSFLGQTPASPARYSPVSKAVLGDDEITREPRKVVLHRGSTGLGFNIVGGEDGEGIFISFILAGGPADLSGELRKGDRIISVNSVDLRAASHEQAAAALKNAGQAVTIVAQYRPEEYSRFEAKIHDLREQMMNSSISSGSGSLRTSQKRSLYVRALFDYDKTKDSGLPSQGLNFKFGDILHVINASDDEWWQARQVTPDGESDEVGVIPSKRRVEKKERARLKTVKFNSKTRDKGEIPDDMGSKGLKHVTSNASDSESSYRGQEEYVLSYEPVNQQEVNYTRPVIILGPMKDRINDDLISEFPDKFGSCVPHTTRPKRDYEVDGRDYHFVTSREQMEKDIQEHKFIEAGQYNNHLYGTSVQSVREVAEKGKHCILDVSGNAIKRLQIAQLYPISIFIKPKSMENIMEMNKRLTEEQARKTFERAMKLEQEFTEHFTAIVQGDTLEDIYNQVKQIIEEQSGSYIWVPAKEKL

As to “125I-labeled 30-kD amino-terminal domain of protein 4.1 (domain or fragment)”, the pKd is 8.28.
